How the values were obtained:
[1] = target: meHER2-CAR, orientation Hc28ζ-Lc (meditope-enabled trastuzumab Fab-CAR); test: flow cytometry of lentivirally transduced primary human T cells stained with Meditope-AF647, middle trace meHer2 (Hc28 ζ-Lc). Untransduced control on the sheet: 1.83% MFI:1306.
[2] = target: meHER2-CAR, orientation Lc-Hc28ζ (meditope-enabled trastuzumab Fab-CAR); test: flow cytometry of lentivirally transduced primary human T cells stained with Meditope-AF647, top trace meHer2 (Lc-Hc28ζ). Untransduced control on the sheet: 1.83% MFI:1306.
[3] = target: meHER2-CAR, orientation Hc28ζ-Lc (meditope-enabled trastuzumab Fab-CAR); test: flow cytometry of meHer2 (Hc28 ζ-Lc) T cells pre-bound to meditope peptide and stained with protein L. Untransduced control, same quadrant: 0.50%.
[4] = target: meHER2-CAR, orientation Lc-Hc28ζ (meditope-enabled trastuzumab Fab-CAR); test: flow cytometry of meHer2 (Lc-Hc28ζ) T cells pre-bound to meditope peptide and stained with protein L. Untransduced control, same quadrant: 0.50%.
[5] = target: original trastuzumab meFab; test: Kinexa experiments, 25° C. (data not shown)
[6] = target: Fab of the meditope-Fab interaction (not specified); test: estimated; method not stated
[7] = target: meHER2-CAR, orientation Hc28ζ-Lc (meditope-enabled trastuzumab Fab-CAR); test: flow cytometry of lentivirally transduced primary human T cells stained with protein L, middle trace meHer2 (Hc28 ζ-Lc). Untransduced control on the sheet: 13.16% MFI:1418.
[8] = target: meHER2-CAR, orientation Hc28ζ-Lc (meditope-enabled trastuzumab Fab-CAR); test: flow cytometry of meHer2 (Hc28 ζ-Lc) T cells pre-bound to meditope peptide and stained with protein L. Untransduced control, same quadrant: 7.23%.
[9] = target: meHER2-CAR, orientation Lc-Hc28ζ (meditope-enabled trastuzumab Fab-CAR); test: flow cytometry of meHer2 (Lc-Hc28ζ) T cells pre-bound to meditope peptide and stained with protein L. Untransduced control, same quadrant: 0.63%.
[10] = target: meHER2-CAR, orientation Lc-Hc28ζ (meditope-enabled trastuzumab Fab-CAR); test: flow cytometry of meHer2 (Lc-Hc28ζ) T cells pre-bound to meditope peptide and stained with protein L. Untransduced control, same quadrant: 7.23%.
[11] = target: meHER2-CAR, orientation Hc28ζ-Lc (meditope-enabled trastuzumab Fab-CAR); test: flow cytometry of meHer2 (Hc28 ζ-Lc) T cells pre-bound to meditope peptide and stained with protein L. Untransduced control, same quadrant: 0.63%.

## Meditope-AF647 (peptide)
[1]
  % positive cells (marker gate): 54.4%
[2]
  % positive cells (marker gate): 57.1%
[3]
  % cells Meditope+ Protein L- (upper left quadrant): 2.6%
[4]
  % cells Meditope+ Protein L- (upper left quadrant): 2.09%

## meditope-protein L fusion (MPL)
[5]
  Kd: 0.014 nM
  fold over the affinity of the individual components: 87000 fold
[6]
  half-life of the complex: > 80 days

## protein L
[7]
  % positive cells (marker gate): 51.8%
[8]
  % cells Meditope- Protein L+ (lower right quadrant): 4.04%
[9]
  % cells Meditope+ Protein L+ (upper right quadrant): 43.1%
[10]
  % cells Meditope- Protein L+ (lower right quadrant): 16.1%
[11]
  % cells Meditope+ Protein L+ (upper right quadrant): 42.1%

Reference: patent US20200054736A1
